Experimental findings from the DeepSol protein solubility set are described below.

A short description of the data set: soluble on expression in E. coli; label from the status in PepcDB or PDB records.
With “MSLSQIVAEVDGYKVTKEELDTLFHVFWKRITHLSSAKPTQEDKRIFLIDYVADLLILKEAKKMGIEVSEKEINDFIRKYVGRKIKEKSVINAVKAEILVEKLVDKLMKEQELNPSEDILRAYYEFYKREFYRPSSVKLLGIYVKSKKEAERISQILKQGEVPSTEDVKVSKPLWYSIPTLPKYIRRNFRTLSVGEVSKPIKINDGYLVFKILDKKEGHHHHHH”, the “soluble on expression in E. coli” value was “soluble”.
With “MGSDKIHHHHHHMISATNWVPRGFSSEFPEKYVLDDEEVERINQLAQLNLDDAKATLEEAEGESGVEDDAATGSSNKLKDQLDIDDDLKEYNLEEYDDEEIADNEGGKDVSMFPGLSNDSDVKFHEGEKGEDPYISLPNQEDSQEEKQELQVYPSDNLVLAARTEDDVSYLDIYVYDDGAGFHSSDIPVEEGDEADPDVARGLVRDPALYVHHDLMLPAFPLCVEWLDYKVGSNSEEAANYAAIGTFDPQIEIWNLDCVDKAFPDMILGEPLDNSMVSLKSKKKKKKSKTGHITTHHTDAVLSMAHNKYFRSVLASTSADHTVKLWDLNSGNAARSLASIHSNKNVSSSEWHMLNGSILLTGGYDSRVALTDVRISDESQMSKYWSAMAGEEIETVTFASENIILCGTDSGNVYSFDIRNNENRKPVWTLKAHDAGISTLCSNKFIPGMMSTGAMGEKTVKLWKFPLDDATNTKGPSMVLSRDFDVGNVLTSSFAPDIEVAGTMVIGGVNKVLKLWDVFTNRSVRKSFKSELENVQARAKEEAQKIGKSSRIARKYTSNDNPDTVITIDDQGEDEEEREGGDEHDDMA”, the “soluble on expression in E. coli” value is recorded as “not soluble”.
Next, “GTKASKSGVPVTQTQTAGADTTAEKCKGKGEKDCKSPDCKWEGGTCKD”: “soluble”; “MTSPSSDEDIIDIRVIKEEPESEPDSEAEPATTTNSTDSEDSVEQENKKLLETEKNRKREQKHKMLPNGTTSGTSDTGNQVPATSSAASSVDYTAMNAQDYLPTYSNTTLNYQPYQYQTAANGLLNYNNYSQYATANQLGSNYISPANFMQGGGISPLGFTTGTTGATTAAASVATSSASAVIGRSNGRSSSTVAASPADRSYSGVSGGQGQELTIQEFETVTEKIRRHGTYGQSKPPYSYISLITMAIQKSNSRQLTLSEIYNWIMDLFPYYQNNQQRWQNSIRHSLSFNDCFVKVARSPDKPGKGSFWTLHEHCGNMFENGCYLRRQKRFKVKEREPSRKKRNANSQQLHQQQHIPKMEIKEEDPTSITTTSSLGAYSLIPQISTKKEIKEELKAVQDATAAAANLGLIDPSGTPSAVNHSQPTSVISSVGTLGTTQAQMTLNGQYASPYLYSSDFATILPQSQNFLNNTLYNTTSSYPGIDYTNGVYQNTLYSSTNPNSAANL”: “not soluble”; “MVATEKKFTLRHIFKNVSQLEDGKYLYSPDEDHFNVDWNMSISHKKEKLGVYFYCYKSEESASAWSIDTEYDLALKNSSGKRISIDFKYKFSTSTGFGTAELVSWDAMIKDYLIDDVIIMEATVKIINLMGIPKKTLRTFDESNEEFSDVILTVEDEKFYVLKQFLASHSSHFKTLFLRKCEEEAEKSEYTLQDINSIDFQNLLEVLHGEPAIDEETVQGIRDLADKYDMPFPTRKCEEFLIDLSEKSIKEKLKIAKQFQLEKLKMHCLSKIETVDHIKAAMTGDPIEMDLSVLAALLGKSLALH”: “not soluble”.
As to “APPSSFSKAKKEAVKIYLDYPTSFYCGCDITWKNKKKGIPELESCGYQVRKQEKRASRIEWEHVVPAWQFGHQRQCWQKGGRKNCTRNDKQFKSMEADLHNLVPAIGEVNGDRSNFRFSQWNGSKGAFYGQCAFKVDFKGRVAEPPAQSRGAIARTYLYMNNEYKFNLSKAQRQLMEAWNKQYPVSTWECTRDERIAKIQGNHNQFVYKAC”, the “soluble on expression in E. coli” value is reported as “soluble”.
Under “MGSDKIHHHHHHMSSPFDYFVVFAEMRTGSNFLEANLNALDGVACVGEAFNPHFIGYPNKTEILEVSQDMRDADPQCLIDAVRDARGVLAGFRFFHDHDPRVLDLVLSDPRCAKIILTRNPLDSYVSWKIAKETGQWKLTNIKRRKEAQARFDAEEFARHVEALQDFQVFLLNSLQRSGQTPFYVAYEDLQDLSVMNGLAQWLGVSARLEQLDDSLKRQNPSPVTSKVVNAGEMVEALSGLDRFNLTRTPNFEPRRGPAVPTYVTGAVTPLIYLPVRGGPEDEVRRWMADLDGVVDAALGTGLNQKQVRGWLKGNEGHRAFTVLRHPLARAHSAFCHRILNKGPGCFTKIRNTLRRQFSLPIPEGTPGLDYGRADHRAAFEAFLEFVRMNLAGQTAIRIDGSWCSQAQALSSFAEFVSPDLILREDEIATDLPSLARRFGHAEPPEPPRAAPDTPIPLSDIYDDALEALAADVYQRDYIVFGFGKWAGGQA” stands “not soluble”; under “MANPTVIKLQDGNVMPQLGLGVWQASNEEVITAIQKALEVGYRSIDTAAAYKNEEGVGKALKNASVNREELFITTKLWNDDHKRPREALLDSLKKLQLDYIDLYLMHWPVPAIDHYVEAWKGMIELQKEGLIKSIGVCNFQIHHLQRLIDETGVTPVINQIELHPLMQQRQLHAWNATHKIQTESWSPLAQGGKGVFDQKVIRDLADKYGKTPAQIVIRWHLDSGLVVIPKSVTPSRIAENFDVWDFRLDKDELGEIAKLDQGKRLGPDPDQFGG”, “soluble”.
Under “MNVREPEITSVTDLTDKELTQQWKIIDWKRVKEVVNNLQSRIASAAKSGNWKTVNKLSRLLTRSFYAKLLSIRKVTTNKGSRTPGIDGIIWSSSADKMRAALQLTNKGYRAKPLTRKYIRKKSGKLRPLSIPTMYDRAMQTLHSLVLGAIESAAGDKTSFGFKPYRSTKDAYAYLHLCLSKKVSPEWIVEGDIKACFDEISHNWILDNIPIDKRILKEFLKAGYIENYHLFPTEKGTPQGGPISPIIGNMSLNGLENALAMRFYSRSDGTIDKSHQNRRKVNYVRFADDLVVTADSPETALEIIDVIQAFLDPRGLKLSEEKTLVTNISEGFNFLGWNFRKYKGKLLPKPSKDSQKEIIKKIRDVLHKAKAWDQDRLIQTLNPIIRGWAEYHNHAVSSAIFNKLDEIVYNMLISWAKRRHSNKGFTWITTKYWHKSGKRKYVFCTELQTLERFSNAKIVRQRLASLNKNPFIDKEYFEQWKFMEYHRKKRITNPNSVLNLEHHHHHH” stands “not soluble”.
Next, “MNYTKFDVKNWVRREHFEFYRHRLPCGFSLTSKIDITTLKKSLDDSAYKFYPVMIYLIAQAVNQFDELRMAIKDDELIVWDSVDPCFTVFHQETETFSALSCPYSSDIDQFMVNYLSVMERYKSDTKLFPQGVTPENHLFISALPWVNFDSFNLNVANFTDFFAPVITMAKYQQEGDRLLLPLSVQVHHAVCDGFHVARFINRLQELCNSKLK”: “soluble”; “MGSDKIHHHHHHMKLLWFAHRDIKHPKAGGAERTIYEVGKRLSKLNIGVNLVTVNPGNLLEYENVDGIIIYRIKGNIRTHLYVRKMIKKINPDVIIDDMGHAVPWFSPWFTDKRVIVFFRHLHAKSLPGQVNFFLAKIITLVEKLYPIIYKNNIFVTESDTSENDLIDLGIKKDRIVRIPPGVDLNLFHTGKKTDNVQLLYFGGLRKYKRPEYAITIYENLYKKIDNLKLIIVGDGILLNEIKDKVKGKNYNIVFTGKLEYDELAKIIRESWVNLHFSVTEGWGYSILEASASGTPSVAFKVPGVVDTIIDGYNGFLVNNINEFTDKILYIIKNEDKFILNSRKFAENFTWEKTADLWYKLLNGN”: “not soluble”; “SFARGLKRKCVGHEEDVEGALAGLKTVSSYSLQRQSLLDMSLVKLQLCHMLVEPNLCRSVLIANTVRQIQEEMTQDGTWRTVAPQAAERAPLDRLVSTEILCRAAWGQEGAHPAPGLGDGHTQGPVSDLCPVTSAQAPRHLQSSAWEMDGPRENRGSFHKSLDQIFETLETKNPSCMEELFSDVDSPYYDLDTVLTGMMGGARPGPCEGLEGLAPATPGPSSSCKSDLGELDHVVEILVET”: “not soluble”.
On to “MSLTMVQVTLEVNGRQVAHEAPPRMHLGDFLRDQARLTGTHLGCEHGVCGACTVLVDGQPVRSCITYAVACEGRQVTTIEGYDGDPVMARLRAAFTKYHALQCGYCTPGMLTTSRDIVLRLPDADEARVRVELSGNLCRCTGYMGIVGAVMSVLRDLREQPDAAVQALRAAAADGRLPAPRGEQPIAFQPFTPSAPSGKGNQIVDAFTVPFPAAEVWAFMVDLPAVAACLPGAVIEETDGQRVKGKIAIKFGPMAAAFNGAARLERDEAAMRAVFRGAGQDSLSQSRATGDIAYQVEAVSENETRVKVDLQYALQGPLAQFSRSGLVQDFVRRMIADFGKNVTARLREGHHHHHH”, for which the “soluble on expression in E. coli” value was “soluble”.
Take “MSLENLKNIQPREDFNWEEFEAGGVHAAVSRQEQEAAYDKTLNTIKEKEVVMGRVTAINKREVVINVGYKSEGVVPATEFRYNPELKVGDEVEVYIENQEDKKGQLVLSHRKARAARSWERVNEALEKDEIVKGYVKCRTKGGMIVDVFGIEAFLPGSQIDVRPIRDYDAFVEKTMEFKIVKINQEYKNVVVSHKVLIEAELEQQKKEIIGKLEKGQVLEGIVKNITSYGVFIDLGGVDGLIHITDLSWGRVAHPEEIVQLDQKINVVILDFDEDRKRIALGLKQLMPHPWDALDSELKVGDKVKGKVVVMADYGAFVEIAQGVEGLIHVSEMSWTQHLRSAQDFLHVGDEVEAVILTLDREERKMSLGLKQLKPDPWADIETRFPVGSRHHARVRNFTNFGVFVEIEEGVDGLIHISDLSWTKKIKHPSEFTEVGADIEVQVIEIDKENRRLSLGHKQLEENPWDVFETVFTVGSIHEGTVIEVMDKGAVVSLPYGVEGFATPKHMVKEDGSQAVLEEKLPFKVIEFNKDAKRIIVSHSRVFEDEQKMAQREANAERKAEAKAAQKEAAAEAANPAQAVEKATLGDLGELAALKEKLSENEGHHHHHH”: the “soluble on expression in E. coli” value is “soluble”.
As to “MAHHHHHHMCNGKFAFLFSDFGNHVIEESYYKVNEGQRKGETGANKAAMQIQYCKLSHFLKVPFENFDKKTNKIIYPMFALILFEQNKQLNKNDKSIDEQEFHTFCDQFSLSKWKESLVEISKTYRVGFSPTCSIMGGVTSQEIRKFVSKQHESIPNFCVFDMNQNVVCTSMIS”, the “soluble on expression in E. coli” value is reported as “not soluble”.
Next, “MVDQGILRLRQKDASLEFGPPRRRTTVVNWYQERHGTRLTKPEWPLAFVCRNPGTCLQIELVTVMII”: “not soluble”; “MSSRKVSRAHYDEDELASAANMSLVAEGHFRGMKELLSTMDLDTDANTIPELKERAHMLCARFLGGAWKTVPLEHLRISRIKGGMSNMLFLCRLSEVYPPIRNEPNKVLLRVYFNPETESHLVAESVIFTLLSERHLGPKLYGIFSGGRLEEYIPSRPLSCHEISLAHMSTKIAKRVAKVHQLEVPIWKEPDYLCEALQRWLKQLTGTVDAEHRFDLPEECGVSSVNCLDLARELEFLRAHISLSKSPVTFCHNDLQEGNILLPKASSGNIRMPSLSDETQALGNSLSAFNPADPRLVLIDFEYASYNYRAFDFANHFIEWTIDYDIDEAPFYKIQTENFPENDQMLEFFLNYLREQGNTRENELYKKSEDLVQETLPFVPVSHFFWGVWGLLQVELSPVGFGFADYGRDRLSLYFKHKQLLKNLASHQ”: “soluble”; “MSGAVPETPYHQRWLAFPDAVSSYRPLESRLAGTSRATADNRTPCTGRLGTPRVFLMATDDVSKAYSSPTFDAEALLGTVISAEDPDRVLIEPWATGVDGVILDVGSGTGRWTGHLASLGHQIEGLEPATRLVELARQTHPSVTFHHGTITDLSDSPKRWAGLLAWYSLIHMGPGELPDALVALRMAVEDGGGLLMSFFSGPSLEPMYHPVATAYRWPLPELAQALETAGFQVTSSHWDPRFPHAYLTAEASKQNLALEHHHHHH”: “not soluble”.
